Source: patent US20070093443

T1: cynomolgus monkey complement C2 (in plasma of treated monkeys), G8F3W0
T1 chain: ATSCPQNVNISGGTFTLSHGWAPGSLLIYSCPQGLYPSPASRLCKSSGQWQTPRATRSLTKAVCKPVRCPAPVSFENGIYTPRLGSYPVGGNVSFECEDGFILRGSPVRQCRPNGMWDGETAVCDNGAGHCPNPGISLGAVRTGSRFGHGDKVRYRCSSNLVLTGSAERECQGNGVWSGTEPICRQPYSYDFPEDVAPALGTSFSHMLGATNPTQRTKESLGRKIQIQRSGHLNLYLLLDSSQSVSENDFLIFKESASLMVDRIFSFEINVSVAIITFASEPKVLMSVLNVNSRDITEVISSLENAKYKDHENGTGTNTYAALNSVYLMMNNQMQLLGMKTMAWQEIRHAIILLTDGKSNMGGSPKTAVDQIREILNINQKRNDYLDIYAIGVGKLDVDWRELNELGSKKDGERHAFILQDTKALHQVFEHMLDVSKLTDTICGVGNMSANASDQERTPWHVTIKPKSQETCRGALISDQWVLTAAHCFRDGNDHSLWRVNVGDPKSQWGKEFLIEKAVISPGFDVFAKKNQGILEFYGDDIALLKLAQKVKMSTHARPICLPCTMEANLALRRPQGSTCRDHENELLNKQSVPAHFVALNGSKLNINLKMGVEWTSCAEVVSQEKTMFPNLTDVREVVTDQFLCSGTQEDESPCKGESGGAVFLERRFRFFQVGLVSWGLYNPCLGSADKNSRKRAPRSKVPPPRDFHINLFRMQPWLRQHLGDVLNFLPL

T2: rat complement C2 (in plasma of treated rats), Q8CIP8
T2 chain: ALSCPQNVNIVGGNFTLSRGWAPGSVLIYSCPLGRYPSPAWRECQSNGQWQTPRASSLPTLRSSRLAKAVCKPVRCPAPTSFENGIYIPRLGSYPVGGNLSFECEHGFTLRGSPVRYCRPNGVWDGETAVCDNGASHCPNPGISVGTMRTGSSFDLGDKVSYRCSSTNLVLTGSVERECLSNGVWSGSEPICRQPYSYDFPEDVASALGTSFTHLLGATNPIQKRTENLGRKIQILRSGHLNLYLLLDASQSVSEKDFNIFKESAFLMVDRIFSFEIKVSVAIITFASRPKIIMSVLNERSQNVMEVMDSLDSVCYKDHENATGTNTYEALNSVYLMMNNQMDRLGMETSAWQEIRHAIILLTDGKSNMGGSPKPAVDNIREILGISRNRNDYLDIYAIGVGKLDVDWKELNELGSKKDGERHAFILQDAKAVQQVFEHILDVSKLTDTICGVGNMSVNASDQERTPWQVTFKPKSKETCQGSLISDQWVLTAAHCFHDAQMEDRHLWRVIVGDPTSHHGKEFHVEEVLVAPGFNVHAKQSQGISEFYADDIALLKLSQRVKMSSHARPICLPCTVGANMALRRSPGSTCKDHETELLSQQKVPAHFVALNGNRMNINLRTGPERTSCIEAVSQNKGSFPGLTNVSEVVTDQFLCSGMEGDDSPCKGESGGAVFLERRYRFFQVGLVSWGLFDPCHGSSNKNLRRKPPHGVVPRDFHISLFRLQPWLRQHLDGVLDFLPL


Legend:
[1] = target: Complement C3 (human)
[2] = target: Complement component C6 (human)
[3] = target: Complement component C8 (human)
[4] = target: T1, cynomolgus monkey complement C2 (in …)
[5] = target: T2, rat complement C2 (in plasma of treated …)

Complement component C8 (human), sequence (chain, as listed by the source, chain 1 of 3): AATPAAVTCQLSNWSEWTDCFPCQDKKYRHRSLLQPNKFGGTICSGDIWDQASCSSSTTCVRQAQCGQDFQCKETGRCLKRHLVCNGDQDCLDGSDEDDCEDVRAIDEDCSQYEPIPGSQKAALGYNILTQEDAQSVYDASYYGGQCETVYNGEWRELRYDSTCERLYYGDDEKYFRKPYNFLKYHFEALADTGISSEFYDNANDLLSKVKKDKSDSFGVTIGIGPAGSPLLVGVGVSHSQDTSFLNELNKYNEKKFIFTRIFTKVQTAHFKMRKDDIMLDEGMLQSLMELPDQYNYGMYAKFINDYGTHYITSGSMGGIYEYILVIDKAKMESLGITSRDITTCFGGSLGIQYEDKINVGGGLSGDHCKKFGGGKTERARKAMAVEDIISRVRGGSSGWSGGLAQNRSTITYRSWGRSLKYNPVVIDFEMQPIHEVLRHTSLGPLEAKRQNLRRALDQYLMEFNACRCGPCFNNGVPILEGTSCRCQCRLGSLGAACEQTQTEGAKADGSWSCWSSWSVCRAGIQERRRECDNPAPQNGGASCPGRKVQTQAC
Complement component C8 (human), sequence (chain, as listed by the source, chain 2 of 3): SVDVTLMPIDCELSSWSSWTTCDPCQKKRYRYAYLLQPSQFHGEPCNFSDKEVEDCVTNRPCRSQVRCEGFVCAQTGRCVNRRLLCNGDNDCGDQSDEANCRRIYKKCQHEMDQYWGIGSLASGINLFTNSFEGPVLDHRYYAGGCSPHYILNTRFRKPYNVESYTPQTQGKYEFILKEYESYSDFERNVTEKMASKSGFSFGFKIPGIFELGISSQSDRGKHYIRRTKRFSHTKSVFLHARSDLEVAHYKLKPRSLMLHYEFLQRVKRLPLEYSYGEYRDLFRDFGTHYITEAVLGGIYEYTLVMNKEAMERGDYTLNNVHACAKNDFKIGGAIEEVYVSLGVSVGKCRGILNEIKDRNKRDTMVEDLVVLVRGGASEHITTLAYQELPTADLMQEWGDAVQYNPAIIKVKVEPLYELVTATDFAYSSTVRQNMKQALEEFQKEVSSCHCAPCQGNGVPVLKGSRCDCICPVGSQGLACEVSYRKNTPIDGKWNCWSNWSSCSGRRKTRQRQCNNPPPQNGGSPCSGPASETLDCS
Complement component C8 (human), sequence (chain, as listed by the source, chain 3 of 3): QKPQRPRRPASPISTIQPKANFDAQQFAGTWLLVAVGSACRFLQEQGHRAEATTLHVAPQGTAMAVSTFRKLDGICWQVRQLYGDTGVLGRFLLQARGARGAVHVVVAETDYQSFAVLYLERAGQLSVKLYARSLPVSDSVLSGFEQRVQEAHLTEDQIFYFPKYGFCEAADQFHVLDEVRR
Complement component C6 (human), sequence (chain, as listed by the source): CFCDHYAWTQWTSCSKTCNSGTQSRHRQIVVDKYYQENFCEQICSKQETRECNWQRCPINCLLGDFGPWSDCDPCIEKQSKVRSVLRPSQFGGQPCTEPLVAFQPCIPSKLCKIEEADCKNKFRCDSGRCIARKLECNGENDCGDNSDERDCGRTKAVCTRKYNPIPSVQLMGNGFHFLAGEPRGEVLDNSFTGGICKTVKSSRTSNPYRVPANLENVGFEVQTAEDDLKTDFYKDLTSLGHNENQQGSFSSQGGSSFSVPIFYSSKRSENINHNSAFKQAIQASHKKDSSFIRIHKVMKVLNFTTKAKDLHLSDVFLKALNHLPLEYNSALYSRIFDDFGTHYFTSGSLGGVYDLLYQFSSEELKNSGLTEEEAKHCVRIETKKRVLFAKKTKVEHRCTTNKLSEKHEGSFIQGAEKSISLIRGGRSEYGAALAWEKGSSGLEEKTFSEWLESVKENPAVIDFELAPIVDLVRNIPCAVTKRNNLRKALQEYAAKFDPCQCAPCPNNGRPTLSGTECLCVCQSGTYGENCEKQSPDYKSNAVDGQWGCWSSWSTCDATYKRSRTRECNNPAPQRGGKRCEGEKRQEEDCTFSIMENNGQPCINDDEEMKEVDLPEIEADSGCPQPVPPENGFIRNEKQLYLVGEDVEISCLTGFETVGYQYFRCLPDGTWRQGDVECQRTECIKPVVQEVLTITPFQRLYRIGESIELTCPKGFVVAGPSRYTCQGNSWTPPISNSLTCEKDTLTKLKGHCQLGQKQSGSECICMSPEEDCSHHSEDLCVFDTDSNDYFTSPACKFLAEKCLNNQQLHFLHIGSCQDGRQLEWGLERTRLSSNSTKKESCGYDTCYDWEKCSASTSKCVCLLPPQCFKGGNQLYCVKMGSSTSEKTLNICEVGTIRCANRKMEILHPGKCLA

Protein	cleavage in 90% human plasma by Western blot [1]	hemolysis (OD415) by protease-preincubated purified complement protein added back to the corresponding depleted sera [1]	hemolysis (OD415) by protease-preincubated purified complement protein added back to the corresponding depleted sera [2]	hemolysis (OD415) by protease-preincubated purified complement protein added back to the corresponding depleted sera [3]	C2 Western blot of plasma from monkeys dosed IV with 1 or 3 mg/kg protease [4]	C2 Western blot of plasma from monkeys dosed with 1 mg/kg CB252 IV [4]	average extent of degradation of C2 (densitometry of C2 Western blots), 5 minutes after 3 mg/kg CB252 IV [4] [% degraded at 5 minutes]	average extent of degradation of C2 (densitometry of C2 Western blots), 30 minutes after 3 mg/kg CB252 IV [4] [% degraded at 30 minutes]	average extent of degradation of C2 (densitometry of C2 Western blots), 60 minutes after 3 mg/kg CB252 IV [4] [% degraded at 60 minutes]	percent C2 cleavage (Western blot densitometry), plasma of animal 2, 5 minutes after 3 mg/kg CB252 IV [4] [%]	percent C2 cleavage (Western blot densitometry), plasma of animal 2, 30 minutes after 3 mg/kg CB252 IV [4] [%]	percent C2 cleavage (Western blot densitometry), plasma of animal 2, 60 minutes after 3 mg/kg CB252 IV [4] [%]	percent C2 cleavage (Western blot densitometry), plasma of animal 4, 5 minutes after 3 mg/kg CB252 IV [4] [%]	percent C2 cleavage (Western blot densitometry), plasma of animal 4, 30 minutes after 3 mg/kg CB252 IV [4] [%]	percent C2 cleavage (Western blot densitometry), plasma of animal 4, 60 minutes after 3 mg/kg CB252 IV [4] [%]	percent C2 cleavage (Western blot densitometry), plasma of animal 5, 5 minutes after 3 mg/kg CB252 IV [4] [%]	percent C2 cleavage (Western blot densitometry), plasma of animal 5, 30 minutes after 3 mg/kg CB252 IV [4] [%]	percent C2 cleavage (Western blot densitometry), plasma of animal 5, 60 minutes after 3 mg/kg CB252 IV [4] [%]	C2 Western blot of plasma from rats dosed IV with the protease [5]
modified MT-SP1 CB252 (Y146E/K224N) protease domain (protein) VVGGTDADEGEWPWQVSLHALGQGHICGASLISPNWLVSAAHCYIDDRGFRYSDPTQWTAFLGLHDQSQRSAPGVQERRLKRIISHPFFNDFTFDYDIALLELEKPAEYSSMVRPICLPDASHVFPAGKAIWVTGWGHTQEGGTGALILQKGEIRVINQTTCENLLPQQITPRMMCVGFLSGGVDSCQGDSGGPLSSVEADGRIFQAGVVSWGDGCAQRNNPGVYTRLPLFRDWIKENTGV	none of the tested proteases cleaved C3 in human plasma as compared to the no protease control even at the highest concentration of protease (2000 nM)	showed no decreased hemolysis as compared to normal sera or the no protease control	showed no decreased hemolysis as compared to normal sera or the no protease control	showed no decreased hemolysis as compared to normal sera or the no protease control	increased cleavage of C2 in plasma from CB252 and CB377 treated monkeys after treatment with 3 mg/kg protease but not after treatment with 1 mg/kg protease ... a greater cleavage of C2 occurred in plasma collected form CB252 treated monkeys as compared to CB377 treated monkeys at all time points tes	Plasma from monkeys treated with 1 mg/kg CB252 had no discernable C2 cleavage	60	50	40	62	55	50	55	45	37	65	50	38	CB252 showed a greater cleavage of C2 as there was little detectable C2 present in the plasma samples as assessed by Western Blot even after only 5 minutes following injection, with no detectable C2 present at 60 or 120 minutes after injection
modified MT-SP1 CB377 (Y146E/Q175D/K224N) protease domain (protein) VVGGTDADEGEWPWQVSLHALGQGHICGASLISPNWLVSAAHCYIDDRGFRYSDPTQWTAFLGLHDQSQRSAPGVQERRLKRIISHPFFNDFTFDYDIALLELEKPAEYSSMVRPICLPDASHVFPAGKAIWVTGWGHTQEGGTGALILQKGEIRVINQTTCENLLPQDITPRMMCVGFLSGGVDSCQGDSGGPLSSVEADGRIFQAGVVSWGDGCAQRNNPGVYTRLPLFRDWIKENTGV	none of the tested proteases cleaved C3 in human plasma as compared to the no protease control even at the highest concentration of protease (2000 nM)	showed no decreased hemolysis as compared to normal sera or the no protease control	showed no decreased hemolysis as compared to normal sera or the no protease control	showed no decreased hemolysis as compared to normal sera or the no protease control	increased cleavage of C2 in plasma from CB252 and CB377 treated monkeys after treatment with 3 mg/kg protease but not after treatment with 1 mg/kg protease	–	–	–	–	–	–	–	–	–	–	–	–	–	CB377 also showed diminished C2 levels as compared to vehicle control at early time points, however, by 60 minutes and 120 minutes the levels of C2 were comparable to those from vehicle control samples
